Experimental data reported in the supplement of paper PMC11246515.
± gives the standard deviation of the averaged measurements.

Assay: total protein half-life in vivo (active degradation + dilution); higher = more stable protein
[1] = E. coli NCM3722 delta-hslV, growth: N-lim chemostat, doubling time 6 h
[2] = E. coli NCM3722 delta-smpB, growth: N-lim chemostat, doubling time 6 h
[3] = wild type E. coli NCM3722, growth: C-lim chemostat, doubling time 3 h
[4] = wild type E. coli NCM3722, growth: C-lim chemostat, doubling time 6 h
[5] = wild type E. coli NCM3722, growth: C-lim chemostat, doubling time 12 h
[6] = wild type E. coli NCM3722, growth: N-lim chemostat, doubling time 6 h
[7] = wild type E. coli NCM3722, growth: N-lim chemostat, doubling time 12 h
[8] = wild type E. coli NCM3722, growth: P-lim chemostat, doubling time 6 h
[9] = wild type E. coli NCM3722, growth: P-lim chemostat, doubling time 12 h
[10] = E. coli NCM3722 delta-clpP delta-lon delta-hslV, growth: N-lim chemostat, doubling time 6 h
[11] = E. coli NCM3722 delta-clpP, growth: N-lim chemostat, doubling time 6 h
[12] = E. coli NCM3722 delta-lon, growth: N-lim chemostat, doubling time 6 h

Row | Sequence | total protein half-life in vivo [1] [h] | total protein half-life in vivo [2] [h] | total protein half-life in vivo [3] [h] | total protein half-life in vivo [4] [h] | total protein half-life in vivo [5] [h] | total protein half-life in vivo [6] [h] | total protein half-life in vivo [7] [h] | total protein half-life in vivo [8] [h] | total protein half-life in vivo [9] [h] | total protein half-life in vivo [10] [h] | total protein half-life in vivo [11] [h] | total protein half-life in vivo [12] [h]
1 | MRHLRNIFNLGIKELRSLLGDKAMLTLIVFSFTVSVYSSATVTPGSLNLAPIAIADMDQSQLSNRIVNSFYRPWFLPPEMITADEMDAGLDAGRYTFAINIPPNFQRDVLAGRQPDIQVNVDATRMSQAFTGNGYIQNIINGEVNSFVARYRDNSEPLVSLETRMRFNPNLDPAWFGGVMAIINNITMLAIVLTGSALIREREHGTVEHLLVMPITPFEIMMAKIWSMGLVVLVVSGLSLVLMVKGVLGVPIEGSIPLFMLGVALSLFATTSIGIFMGTIARSMPQLGLLVILVLLPLQMLSGGSTPRESMPQMVQDIMLTMPTTHFVSLAQAILYRGAGFEIVWPQFLTLMAIGGAFFTIALLRFRKTIGTMA [P0AGH1] | 7.18 ± 0.3 | 6.13 ± 0.76 | 3.9 | 7.01 | 12.2 | 5.76 ± 0.3 | 10.5 | 7.25 ± 0.75 | 11.7 ± 0.4 |  |  | 
2 | MRHPLVMGNWKLNGSRHMVHELVSNLRKELAGVAGCAVAIAPPEMYIDMAKREAEGSHIMLGAQNVDLNLSGAFTGETSAAMLKDIGAQYIIIGHSERRTYHKESDELIAKKFAVLKEQGLTPVLCIGETEAENEAGKTEEVCARQIDAVLKTQGAAAFEGAVIAYEPVWAIGTGKSATPAQAQAVHKFIRDHIAKVDANIAEQVIIQYGGSVNASNAAELFAQPDIDGALVGGASLKADAFAVIVKAAEAAKQA [P0A858] | 4.718 ± 0.03 | 4.59 ± 0.26 | 3.057 ± 0.024 | 5.92 ± 0.066 | 10.6 ± 0.24 | 4.75 ± 0.24 | 8.33 ± 0.46 | 5.79 ± 0.17 | 13.1 ± 0.81 | 5.91 ± 0.91 | 5.22 ± 0.98 | 5.61 ± 0.81
3 | MRICSDQPCIVLLTEKDVWIRVNGKEPISLKANHMALLNCENNIIDVSSLNNTLVAHISHDIIKDYLRFLNKDLSQIPVWQRSATPILTLPCLTPDVFRVAAQHSMMPAETESEKERTRALLFTVLSRFLDSKKFVSLMMYMLRNCVSDSVYQIIESDIHKDWNLSMVASCLCLSPSLLKKKLKSENTSYSQIITTCRMRYAVNELMMDGKNISQVSQSCGYNSTSYFISVFKDFYGMTPLHYVSQHRERTVA |  | 1.24 |  |  |  |  |  |  |  |  |  | 
4 | MRIGHGFDVHAFGGEGPIIIGGVRIPYEKGLLAHSDGDVALHALTDALLGAAALGDIGKLFPDTDPAFKGADSRELLREAWRRIQAKGYTLGNVDVTIIAQAPKMLPHIPQMRVFIAEDLGCHMDDVNVKATTTEKLGFTGRGEGIACEAVALLIKATK | 4.88 ± 0.23 | 4.88 ± 0.38 | 2.872 ± 0.01 | 6.85 ± 1.3 | 10.7 | 4.9 ± 0.24 | 8.67 ± 0.53 | 5.806 ± 0.032 | 12.9 ± 0.45 | 5.75 ± 0.23 | 4.63 ± 0.57 | 5 ± 0.85
5 | MRIGIDLGGTKTEVIALGDAGEQLYRHRLPTPRDDYRQTIETIATLVDMAEQATGQRGTVGMGIPGSISPYTGVVKNANSTWLNGQPFDKDLSARLQREVRLANDANCLAVSEAVDGAAAGAQTVFAVIIGTGCGAGVAFNGRAHIGGNGTAGEWGHNPLPWMDEDELRYREEVPCYCGKQGCIETFISGTGFAMDYRRLSGHALKGSEIIRLVEESDPVAELALRRYELRLAKSLAHVVNILDPDVIVLGGGMSNVDRLYQTVGQLIKQFVFGGECETPVRKAKHGDSSGVRGAAWLWPQE | 6.33 ± 1.9 | 5.3 ± 0.66 | 2.8 ± 0.4 | 5.8 ± 0.29 | 11.8 ± 2.8 | 5.18 ± 0.18 | 9.94 ± 4 | 6.21 ± 0.56 | 11.7 ± 0.5 | 5.21 ± 0.15 | 5.38 ± 0.09 | 5.67 ± 0.31
6 | MRIGIPRERLTNETRVAATPKTVEQLLKLGFTVAVESGAGQLASFDDKAFVQAGAEIVEGNSVWQSEIILKVNAPLDDEIALLNPGTTLVSFIWPAQNPELMQKLAERNVTVMAMDSVPRISRAQSLDALSSMANIAGYRAIVEAAHEFGRFFTGQITAAGKVPPAKVMVIGAGVAGLAAIGAANSLGAIVRAFDTRPEVKEQVQSMGAEFLELDFKEEAGSGDGYAKVMSDAFIKAEMELFAAQAKEVDIIVTTALIPGKPAPKLITREMVDSMKAGSVIVDLAAQNGGNCEYTVPGEIFTTENGVKVIGYTDLPGRLPTQSSQLYGTNLVNLLKLLCKEKDGNITVDFDDVVIRGVTVIRAGEITWPAPPIQVSAQPQAAQKAAPEVKTEEKCTCSPWRKYALMALAIILFGWMASVAPKEFLGHFTVFALACVVGYYVVWNVSHALHTPLMSVTNAISGIIVVGALLQIGQGGWVSFLSFIAVLIASINIFGGFTVTQRMLKMFRKN | 6.66 ± 0.067 | 6.01 ± 0.82 |  |  | 14.5 ± 0.55 | 6.23 ± 0.47 | 12.6 ± 0.42 | 6.73 ± 0.34 | 11.6 ± 1.5 | 6.21 ± 0.11 | 6.81 ± 0.17 | 6.58 ± 0.37
7 | MRIGMRLLLGYFLLVAVAAWFVLAIFVKEVKPGVRRATEGTLIDTATLLAELARPDLLSGDPTHGQLAQAFNQLQHRPFRANIGGINKVRNEYHVYMTDAQGKVLFDSANKAVGQDYSRWNDVWLTLRGQYGARSTLQNPADPESSVMYVAAPIMDGSRLIGVLSVGKPNAAMAPVIKRSERRILWASAILLGIALVIGAGMVWWINRSIARLTRYADSVTDNKPVPLPDLGSSELRKLAQALESMRVKLEGKNYIEQYVYALTHELKSPLAAIRGAAEILREGPPPEVVARFTDNILTQNARMQALVETLLRQARLENRQEVVLTAVDVAALFRRVSEARTVQLAEKKITLHVTPTEVNVAAEPALLEQALGNLLDNAIDFTPESGCITLSAEVDQEHVTLKVLDTGSGIPDYALSRIFERFYSLPRANGQKSSGLGLAFVSEVARLFNGEVTLRNVQEGGVLASLRLHRHFT | 6.18 ± 0.49 | 5.49 ± 0.91 | 3.16 ± 0.14 | 6.54 ± 1.2 | 9.95 ± 2.1 | 5.81 ± 0.57 | 12.1 ± 0.34 | 6.86 ± 0.85 | 12.8 ± 1.8 | 6.22 ± 0.68 | 7.24 ± 0.64 | 5.7 ± 0.74
